The values below are quoted from earlier work in PMC3428507.

As a reminder, the Kd is the free concentration of one partner at which half of the binding sites on the other are occupied at equilibrium, for simple one-to-one binding.

For the data set, the target named is Pf1 MBD (Homo sapiens) (UniProt Q96QT6).
Chain of Pf1 MBD (Homo sapiens) (Q96QT6 200-241): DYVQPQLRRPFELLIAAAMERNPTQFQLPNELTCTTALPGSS

Chain of MRG15 MRG (Q9UBU8 188-362): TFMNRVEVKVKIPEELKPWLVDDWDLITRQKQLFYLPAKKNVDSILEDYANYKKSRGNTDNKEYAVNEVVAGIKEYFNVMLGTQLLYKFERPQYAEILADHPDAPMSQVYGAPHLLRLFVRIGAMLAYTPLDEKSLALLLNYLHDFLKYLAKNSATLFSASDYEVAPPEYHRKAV

Consider MRG15 MRG (from UniProt Q9UBU8), for which the Kd is 0.015 µM.
